Molecular target: T1, guanine nucleotide dissociation inhibitor (GDI) (yeast, UniProt P39958 1-451)
T1 construct: expressed as GST-PreSc-GDI; also called Gdi1; source: E. coli BL21 DE3 (Rosetta), purified (glutathione sepharose, cleaved from the beads with PreScission protease); not shown: GST, N-terminal, cleaved
T1 sequence (looked up): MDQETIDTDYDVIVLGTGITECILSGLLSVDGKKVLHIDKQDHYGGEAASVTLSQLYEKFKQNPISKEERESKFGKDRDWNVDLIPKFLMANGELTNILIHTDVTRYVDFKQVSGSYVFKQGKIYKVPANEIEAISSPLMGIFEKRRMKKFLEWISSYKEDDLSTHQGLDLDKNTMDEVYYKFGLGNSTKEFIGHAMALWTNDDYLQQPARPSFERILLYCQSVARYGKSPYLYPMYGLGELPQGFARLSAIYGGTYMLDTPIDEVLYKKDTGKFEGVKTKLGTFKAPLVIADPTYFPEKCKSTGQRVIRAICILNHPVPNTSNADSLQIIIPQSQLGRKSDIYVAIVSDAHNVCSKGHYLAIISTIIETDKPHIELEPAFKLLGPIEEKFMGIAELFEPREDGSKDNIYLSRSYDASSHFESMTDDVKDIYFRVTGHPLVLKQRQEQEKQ
Assay: SEC; after in vitro prenylation (Rab GTPase, GDI, His6-Mrs6, Bet4 His6-TEV-Bet2 at 10:9:1:1, 37°C, 1.5 h) and removal of His6-Mrs6 and Bet4 His6-TEV-Bet2 on Ni2+ resin, the supernatant was loaded on a Superdex200 increase column; prenylation buffer 50 mM HEPES-NaOH pH 7.4, 150 mM NaCl, 1.5 mM MgCl2, 1 mM DTT
Conditions: both partners purified

- binding result: binds
B1: prenylated Ypt7 (natural protein, yeast, UniProt P32939 1-208, looked up)
chain: MSSRKKNILKVIILGDSGVGKTSLMHRYVNDKYSQQYKATIGADFLTKEVTVDGDKVATMQVWDTAGQERFQSLGVAFYRGADCCVLVYDVTNASSFENIKSWRDEFLVHANVNSPETFPFVILGNKIDAEESKKIVSEKSAQELAKSLGDIPLFLTSAKNAINVDTAFEEIARSALQQNQADTEAFEDDYNDAINIRLDGENNSCSC
modifications: prenylated in vitro with geranylgeranyl pyrophosphate (C-terminal prenyl anchor; positions not stated)
notes: Ypt7, the Rab7-like GTPase of yeast; The methods list GST-TEV-Ypt7 (cleaved off the beads with TEV protease), Ypt7-His6 and, once, His6-TEV-Ypt7; I surmise that the prenylated Ypt7 came from GST-TEV-Ypt7, because it has a free C-terminus; also called Rab7-like Ypt7; Ypt7-GDP; source: E. coli BL21 DE3 (Rosetta), purified; preloaded with GDP and prenylated in vitro (Mrs6, Bet4-Bet2, geranylgeranyl …)
